Earlier results in article PMC6651453.
Like-named read-outs stand apart in the source and are kept apart here. Blank lines part the entries; values can stand above or below the substance they belong to.

Columns and labels:
TPP1 TBM1 (Homo sapiens) [1] = target: TPP1 TBM1 (Homo sapiens) (UniProt Q96AP0); experiment: fluorescence polarization
TPP1 TBM1 (Homo sapiens) [2] = target: TPP1 TBM1 (Homo sapiens) (UniProt Q96AP0); experiment: fluorescence polarization; remark: listed apart in the source
[3] = target: TPP1 89-544 (Homo sapiens) (UniProt Q96AP0); experiment: fluorescence anisotropy and thermophoresis
[4] = target: POT1 330-634 (Homo sapiens) (UniProt Q9NUX5); experiment: isothermal titration calorimetry
Sequence of UniProt Q9NUX5 (Q9NUX5 330-634): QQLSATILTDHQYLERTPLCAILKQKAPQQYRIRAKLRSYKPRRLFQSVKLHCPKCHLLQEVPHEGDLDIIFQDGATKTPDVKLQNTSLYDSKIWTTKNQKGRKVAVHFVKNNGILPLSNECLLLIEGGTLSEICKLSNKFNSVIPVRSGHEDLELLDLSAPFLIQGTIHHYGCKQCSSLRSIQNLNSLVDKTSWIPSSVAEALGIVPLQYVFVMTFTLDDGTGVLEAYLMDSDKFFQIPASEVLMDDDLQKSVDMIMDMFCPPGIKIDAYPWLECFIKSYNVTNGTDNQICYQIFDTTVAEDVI

TIN2 (Homo sapiens) = TIN2 (Homo sapiens) (UniProt Q9BSI4); experiment: thermophoresis
[5] = target: TIN2 2-202 (Homo sapiens) (UniProt Q9BSI4); experiment: fluorescence polarization
[6] = target: TIN2 2-202 (Homo sapiens) (UniProt Q9BSI4); experiment: fluorescence polarization; remark: listed apart in the source

Substance: TIN2 2-202 (from UniProt Q9BSI4)
Kd (TPP1 TBM1 (Homo sapiens) [1]): 140 nM
Kd (TPP1 TBM1 (Homo sapiens) [2]): 520 nM

Substance: TPP1 255-337 (from UniProt Q96AP0)
Kd [4]: 120 nM

Substance: TRF2 (from UniProt Q15554)
Kd (TIN2 (Homo sapiens)): 360 nM

Substance: TRF2 TBM2 (from UniProt Q15554)
Kd [5]: 1100 nM
Kd [6]: 2700 nM

The next lines start with the values.

Kd [3]: 2800 nM
Substance: TIN2 (from UniProt Q9BSI4)

Kd (TIN2 (Homo sapiens)): 240 nM
Substance: TRF1 (from UniProt P54274)
